# Columns and labels:
# Experiment in all cases: cleavage_in_vitro
# [1] = test system: T1, HpyF30I restriction endonuclease (Helicobacter pylori RFL30)
# T1 sequence: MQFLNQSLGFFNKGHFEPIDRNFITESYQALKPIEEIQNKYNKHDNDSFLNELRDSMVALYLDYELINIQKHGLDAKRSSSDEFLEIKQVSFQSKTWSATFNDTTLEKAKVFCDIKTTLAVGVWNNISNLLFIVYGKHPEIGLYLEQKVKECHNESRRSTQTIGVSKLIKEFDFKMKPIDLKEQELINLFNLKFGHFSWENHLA
# [2] = biological target: T2, TaqI restriction endonuclease (Thermus aquaticus) (UniProt P14386); conditions: 65 C
# T2 sequence: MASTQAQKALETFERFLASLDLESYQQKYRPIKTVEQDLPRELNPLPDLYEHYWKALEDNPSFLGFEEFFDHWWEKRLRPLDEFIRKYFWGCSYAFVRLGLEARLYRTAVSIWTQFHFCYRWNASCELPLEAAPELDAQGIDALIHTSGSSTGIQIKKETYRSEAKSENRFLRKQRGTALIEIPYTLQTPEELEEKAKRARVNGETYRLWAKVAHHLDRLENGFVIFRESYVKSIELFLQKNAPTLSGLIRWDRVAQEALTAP
# [3] = test system: PaeR7I restriction endonuclease
# [4] = about 50% 5mC at the TCGA site, partial, site about 50% methylated
substance,measurement,setting,value
130 bp lambda PCR fragment C,activity,"[1]; with Jurkat genomic DNA, SdaI buffer, 37 C",7 % undigested
same,activity,[2]; with Jurkat genomic DNA,0.7 % undigested
130 bp lambda PCR fragment m5C,activity,"[1]; 5mC in both strands, with Jurkat genomic DNA, SdaI buffer, 37 C",100 % undigested
same,activity,"[2]; 5mC in both strands, with Jurkat genomic DNA",0.7 % undigested
DAPK1 promoter region,activity,"[1]; SdaI buffer, 37 C, qPCR",2 % undigested
same,activity,"[3]; buffer 4, 37 C, qPCR",0.8 % undigested
same,activity,[2]; qPCR,0.7 % undigested
RASSFA1 promoter region,activity,[1]; [4],50 % undigested
same,activity,[3]; [4],50 % undigested
same,activity,"[2]; about 50% 5mC at the TCGA site, qPCR",0.8 % undigested
lambda DNA (dam-),activity,"[1]; SdaI buffer, 15 mM Mg acetate, 37 C, qPCR",0.6 % undigested
same,activity,"[2]; TaqI buffer, qPCR",0.06 % undigested
lambda DNA (dam-) M.SssI methylated,activity,"[1]; 5mC at CpG, both strands, SdaI buffer, 37 C, qPCR",100 % undigested
same,activity,"[2]; 5mC at CpG, both strands, TaqI buffer, qPCR",0.2 % undigested

# Reference: patent publication US20140011196
